Measured values reported in patent US20250186633A1, “METHODS FOR IMAGING INTEGRIN EXPRESSION AND FOR IMAGING SITES OF ENDOMETRIOSIS” (SERAC HEALTHCARE LTD, priority 2022, published 2025).
Starred links: 1 amine or outer side, 2 acyl side, 3 side chain; linkers in the order of their positions; H or OH if unused. Positions of bridges follow the written chain, without caps; N, C: chain ends. Residues, ends and D or L forms follow the SMILES beside them. Groups on a side chain read outwards from the residue. *: point of attachment. X1 = C/C(=N/O)C(C)(C)NCCC(CCNC(C)(C)/C(C)=N\O)CCN*; Glutaryl = O=C(CCCC(=O)[*:2])[*:1]; X2 = NC(=O)COCC(=O)NCCOCCOCCOCCN*

Tests used:
endometriosis lesions = test system: endometriosis lesions; parameters: species or system rat, mouse; settings: in vivo
Description: (§1) A rat surgical model of endometriosis was used, together with immunocompromised mouse and isogenic mouse models—all 3 animal models of endometriosis are as described by Story, L. ILAR J., 45(2) 132-138 (2004).
(§2) The uptake of ^99mTc-maraciclatide was compared with that of ^99mTc-[…]. NC100667 is described by Edwards et al [D. Edwards, Nucl.Med.Biol., 35, 365-375 (2008)]. NC100667 is a negative control peptide, in which the arginine residue of the RGD binding motif of maraciclatide (NC100692) was replaced with an alanine residue. Thus, only one amino acid residue was changed—all other aspects of the agent were otherwise the same.

endometrial lesion = settings: mouse, in vivo
Description: as §1, §2

endometrial lesions = settings: rat, in vivo
Description: as §1, §2

Compound: C/C(=N/O)C(C)(C)NCCC(CCNC(=O)CCCC(=O)NCCCC[C@@H]1NC(=O)CSC[C@@H](C(=O)NCCOCCOCCOCCNC(=O)COCC(N)=O)NC(=O)[C@H](Cc2ccccc2)NC(=O)[C@@H]2CSSC[C@H](NC1=O)C(=O)N[C@@H](CCCNC(=N)N)C(=O)NCC(=O)N[C@@H](CC(=O)O)C(=O)N2)CCNC(C)(C)/C(C)=N\O (stereo partly drawn) [^99mTc-maraciclatide, metal not drawn] ({CH2CO}-K([Glutaryl-X1])CRGDCFC-X2; disulfide 2-6; thioether N-8)
- uptake and retention in animal models of endometriosis (endometriosis lesions): demonstrated in all experimental animal models of endometriosis
- ratio of endometriotic lesion to blood (endometrial lesion): 4.0
- ratio of endometriotic lesion to muscle (endometrial lesion): 8.3
- retention in ovaries and uterine horns (endometrial lesion): ~35%
- uptake in endometrial lesion, time course at 1, 2 or 3 weeks post implantation (endometrial lesion): greatest at one week post uterine horn inoculation
- uptake in endometrial lesions versus control lesions of abdominal fat (endometrial lesions): higher compared to control lesions of abdominal fat
